Drawing on paper PMC6586995, this text covers binding result and Kd for 2 molecules.

Broadly, the Kd is the free concentration of one partner at which half of the binding sites on the other are occupied at equilibrium, for simple one-to-one binding. A high value points to weaker binding.

What all share (experiment): SPR
Data set [1] has as its target T1, integrin α5β1 (soluble, SPR) (Homo sapiens, UniProt P08648;P05556 42-995;21-728).
For data set [2], the target named is T1, integrin α5β1 (soluble, SPR). The source holds these as a separate data set.
The target of another data set is integrin αvβ3 (Homo sapiens, UniProt P06756;P05106 31-992;27-718).
Sequence of integrin αvβ3 (P06756 31-992, chain 1 of 2): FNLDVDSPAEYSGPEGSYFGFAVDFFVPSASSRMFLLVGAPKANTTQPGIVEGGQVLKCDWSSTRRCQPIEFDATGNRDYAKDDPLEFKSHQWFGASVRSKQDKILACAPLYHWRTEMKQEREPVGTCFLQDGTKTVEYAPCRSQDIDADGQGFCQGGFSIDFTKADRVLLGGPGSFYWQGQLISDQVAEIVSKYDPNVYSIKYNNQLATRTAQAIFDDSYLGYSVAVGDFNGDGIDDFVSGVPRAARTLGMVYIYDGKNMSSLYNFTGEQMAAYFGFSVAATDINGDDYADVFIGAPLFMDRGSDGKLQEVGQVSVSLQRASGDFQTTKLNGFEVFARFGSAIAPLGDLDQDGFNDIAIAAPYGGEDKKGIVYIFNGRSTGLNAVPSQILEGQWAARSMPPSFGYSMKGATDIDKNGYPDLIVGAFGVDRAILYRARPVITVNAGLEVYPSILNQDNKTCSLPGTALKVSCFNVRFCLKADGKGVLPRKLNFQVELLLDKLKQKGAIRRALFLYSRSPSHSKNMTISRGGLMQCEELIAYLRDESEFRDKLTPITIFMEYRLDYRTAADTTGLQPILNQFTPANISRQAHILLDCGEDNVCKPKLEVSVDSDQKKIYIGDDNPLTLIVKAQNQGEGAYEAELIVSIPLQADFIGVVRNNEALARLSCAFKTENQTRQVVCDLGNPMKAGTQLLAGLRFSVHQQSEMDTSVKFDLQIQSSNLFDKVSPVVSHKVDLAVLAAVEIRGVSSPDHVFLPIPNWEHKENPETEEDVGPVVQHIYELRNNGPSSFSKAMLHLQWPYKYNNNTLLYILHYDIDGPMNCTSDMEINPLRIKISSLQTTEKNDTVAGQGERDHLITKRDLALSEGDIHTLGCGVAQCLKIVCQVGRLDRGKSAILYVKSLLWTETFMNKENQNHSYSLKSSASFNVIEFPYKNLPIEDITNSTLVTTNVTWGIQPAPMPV
Sequence of integrin αvβ3 (P05106 27-718, chain 2 of 2): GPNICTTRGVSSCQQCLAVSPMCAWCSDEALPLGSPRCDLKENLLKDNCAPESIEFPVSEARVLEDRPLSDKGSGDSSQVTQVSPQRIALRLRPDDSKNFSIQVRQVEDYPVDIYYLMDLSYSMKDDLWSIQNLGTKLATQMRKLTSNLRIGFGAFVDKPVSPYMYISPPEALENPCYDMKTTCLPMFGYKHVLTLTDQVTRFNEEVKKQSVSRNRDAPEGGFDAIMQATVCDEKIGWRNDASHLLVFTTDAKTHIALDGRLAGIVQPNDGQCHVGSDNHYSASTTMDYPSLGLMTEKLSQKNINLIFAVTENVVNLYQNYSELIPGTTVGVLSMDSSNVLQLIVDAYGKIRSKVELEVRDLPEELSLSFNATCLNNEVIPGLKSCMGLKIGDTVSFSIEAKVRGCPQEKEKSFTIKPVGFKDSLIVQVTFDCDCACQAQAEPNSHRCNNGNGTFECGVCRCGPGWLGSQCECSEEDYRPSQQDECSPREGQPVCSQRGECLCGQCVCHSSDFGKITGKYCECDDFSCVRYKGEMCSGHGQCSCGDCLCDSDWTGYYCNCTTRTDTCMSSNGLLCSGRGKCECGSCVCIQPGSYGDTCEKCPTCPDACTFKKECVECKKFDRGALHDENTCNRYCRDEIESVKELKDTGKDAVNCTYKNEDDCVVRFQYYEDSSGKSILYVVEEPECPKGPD

T1 sequence (P08648 42-995, chain 1 of 2): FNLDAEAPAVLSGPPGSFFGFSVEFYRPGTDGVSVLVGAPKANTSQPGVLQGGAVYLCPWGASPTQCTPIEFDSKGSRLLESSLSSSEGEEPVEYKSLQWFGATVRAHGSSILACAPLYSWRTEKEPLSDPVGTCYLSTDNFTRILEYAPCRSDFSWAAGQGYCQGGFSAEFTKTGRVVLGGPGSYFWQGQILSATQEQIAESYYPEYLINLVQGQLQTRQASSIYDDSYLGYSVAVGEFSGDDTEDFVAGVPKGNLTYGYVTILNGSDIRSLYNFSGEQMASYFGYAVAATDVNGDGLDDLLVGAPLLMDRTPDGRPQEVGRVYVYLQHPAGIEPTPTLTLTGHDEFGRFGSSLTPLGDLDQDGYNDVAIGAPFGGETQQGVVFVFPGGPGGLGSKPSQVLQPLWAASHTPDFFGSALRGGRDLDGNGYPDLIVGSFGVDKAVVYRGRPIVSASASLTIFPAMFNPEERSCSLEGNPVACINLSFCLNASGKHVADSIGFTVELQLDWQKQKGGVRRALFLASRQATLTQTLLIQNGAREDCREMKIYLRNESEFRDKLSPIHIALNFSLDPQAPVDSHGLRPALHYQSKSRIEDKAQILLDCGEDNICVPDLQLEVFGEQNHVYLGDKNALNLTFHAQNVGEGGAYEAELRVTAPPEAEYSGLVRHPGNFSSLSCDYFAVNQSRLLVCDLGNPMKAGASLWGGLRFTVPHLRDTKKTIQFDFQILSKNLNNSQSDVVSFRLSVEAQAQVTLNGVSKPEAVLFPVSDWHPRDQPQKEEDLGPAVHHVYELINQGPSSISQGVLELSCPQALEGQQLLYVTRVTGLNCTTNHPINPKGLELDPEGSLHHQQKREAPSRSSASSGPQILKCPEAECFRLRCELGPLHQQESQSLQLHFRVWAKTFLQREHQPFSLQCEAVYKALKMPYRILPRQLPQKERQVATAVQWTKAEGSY
T1 sequence (P05556 21-728, chain 2 of 2): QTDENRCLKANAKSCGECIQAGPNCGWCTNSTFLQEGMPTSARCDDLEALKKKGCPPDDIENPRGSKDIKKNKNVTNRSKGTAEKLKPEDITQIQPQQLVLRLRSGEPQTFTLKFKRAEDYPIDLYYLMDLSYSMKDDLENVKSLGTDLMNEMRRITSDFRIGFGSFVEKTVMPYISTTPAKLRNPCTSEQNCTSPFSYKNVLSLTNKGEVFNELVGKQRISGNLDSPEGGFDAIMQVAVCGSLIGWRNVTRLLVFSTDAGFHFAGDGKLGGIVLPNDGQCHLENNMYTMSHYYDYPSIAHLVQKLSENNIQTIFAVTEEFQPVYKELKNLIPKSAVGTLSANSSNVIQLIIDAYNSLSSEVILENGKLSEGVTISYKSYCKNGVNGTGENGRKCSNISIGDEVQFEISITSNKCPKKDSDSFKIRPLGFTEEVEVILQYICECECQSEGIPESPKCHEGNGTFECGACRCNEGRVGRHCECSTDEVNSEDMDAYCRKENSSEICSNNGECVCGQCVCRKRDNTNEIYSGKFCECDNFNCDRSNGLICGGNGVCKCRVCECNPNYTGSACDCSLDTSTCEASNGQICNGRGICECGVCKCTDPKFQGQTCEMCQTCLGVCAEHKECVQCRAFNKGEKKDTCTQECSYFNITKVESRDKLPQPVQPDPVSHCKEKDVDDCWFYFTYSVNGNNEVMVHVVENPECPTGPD

B1: aptamer B03 (biotinylated, SPR) (structured_RNA)
RNA: GGUUACCAGCCUUCACUGCGCCCAGUCACUGCACGAAUCAGUGAUGGCCGCACCACGGUCGGUCACAC
modifications: 2'-fluoro pyrimidines? (not stated for B03)
For B1, the binding result in data set [1] is “no binding”.

B2: aptamer H02-2'F (XNA)
RNA: GGUUACCAGCCUUCACUGCGGACGGACAGAGAGUGCAACCUGCCGUGCCGCACCACGGUCGGUCACAC
modifications: 2'-fluoro pyrimidines
The molecule B2 registered a dissociation constant (Kd) in data set [2] of 72 ± 11 nM. Further, the binding result in the data set with integrin αvβ3 is “no binding”.
